Test: soluble on expression in E. coli; label from the status in PepcDB or PDB records

| Sequence | soluble on expression in E. coli |
| --- | --- |
| MNLLIDNWIPVRPRNGGKVQIINLQSLYCSRDQWRLSLPRDDMELAALALLVCIGQIIAPAKDDVEFRHRIMNPLTEDEFQQLIAPWIDMFYLNHAEHPFMQTKGVKANDVTPMEKLLAGVSGATNCAFVNQPGQGEALCGGCTAIALFNQANQAPGFGGGFKSGLRGGTPVTTFVRGIDLRSTVLLNVLTLPRLQKQFPNESHTENQPTWIKPIKSNESIPASSIGFVRGLFWQPAHIELCDPIGIGKCSCCGQESNLRYTGFLKEKFTFTVNGLWPHPHSPCLVTVKKGEVEEKFLAFTTSAPSWTQISRVVVDKIIQNENGNRVAAVVNQFRNIAPQSPLELIMGGYRNNQASILERRHDVLMFNQGWQQYGNVINEIVTVGLGYKTALRKALYTFAEGFKNKDFKGAGVSVHETAERHFYRQSELLIPDVLANVNFSQADEVIADLRDKLHQLCEMLFNQSVAPYAHHPKLISTLALARATLYKHLRELKPQGGPSNG | soluble |
| MNLNQLTGADLMAARTHIGLSISAVAKLTGINRNTLSQFEQEKASLSGSEKKRLAGCYEERGYHFDEPQTTDETVLATRYDDARERLVDAAYDVNMNGLGEAVLALADASHDLLSMLARPMDVAQEEVELDAVELPESYLEMHNVLQRHFLADKAGQMQGKVGFFKEDADERSAKLIAYMAQQYLTLLHAEMPEVVSLERDSLDDDSDNARVLDALANWTFYDALKEMTV | not soluble |
| MNLRGILPFAHDTLRKVVRSGDYVIDATCGNGHDTLLLAELVGVNGHVLGFDIQQMAIDATKTRLENAGVASQVELVCASHALIPEYATKPVRAAIFNLGYLPGGDKEITTTADSTLESIGHLMQLLEVGGVIIIVIYHGHPAGKVEKDAVLTFCEAIPQQDFHVLSYNFINQKNDAPFVIIIEKRKPLEHHHHHH | not soluble |
| MNLRPVIVGGGSAGMAAAIELARRGVPCVLFDEASRPGGVVYRGPLRAGVDPAYLGARYTRMLEKLRRDFSACAGHIDLRLNSRVVGGDGQRLMVLDEAERLHEVEYSHLLLATGCHERSVPFPGWTLPGVMLLGGLQLQIKSGVVKPLGDTLIAGSGPLLPLVACQLHAAGVRVAGVYEACAFGRMARESLALLNKPQLFLDGLSMLGYLKLNGIPLHYGWGVVEASGDGELTEVTVAPYDEEWRPDLENARPVKASTLAVGYGFIPRTQLSQQLGLEHGFSDDGYLRAECNVWQQSSQPHIHLAGDMAGIRGGEAAMIGGRIAALSILLQREAIAPAEAIERRESHLARLEAIKRFRAGVERYTQRGARQVELARADTVICRCEQVTRGDIERALEQGVQDIAGLKMRTRAGMGDCQGRMCIGYCSDRLRRATGRHDVGWLRPRFPIDPIPFSAFQNLGTEALEHHHHHH | not soluble |
| MNLYIASIKLWFKGFKENTERSITYSFEPNKINVITGDSSTGKSSILDIIDYLLLSDNPTIVENIINENVEFYGMNIFLEERSYILMRKAPHSGQGTQDVYWKEQEEYPMPYIQTHSVGEMRTILTRMFYVPQHETKVGNRKYNMTFRHFLPFNYLTEDIISSANTYFDTAFFINRSYDVFLDYALELVNGIQYHNANEIKAKIEKAEIDLKQYQKKHQIAQENATKYKASLTSIYDDALSLNLIPADNFFVRENAHEMLHYIKEALAAYNKLIKNDEDTKKLELLKKERYELNNKLSIYNSLLAEMQKQKSSGKKIQDSLRPITFIKEHIDEVIISPETIELLHLLEKQLVQIKESRKEKPKLPHDFALRHEELKDKLKACESKLKELTILRKTIANPKWLERAIGLKYRLENLKRPKEDTYQASTEQNMISLIESLKIEQKNMSLLPHDVKEKLNSYINKYFHSINGIVDSYPDSTMRYDDDERRISLLNNGEDYPVRNIGSKSNYMFLHLCFFLGLHESIMFHRSKHVGSFLFIDQPSMPYYADKGTLDNDDKKQLIKAFRLLNEFMEEIIGNQNRSFQMILIEHADESYWKELEYFHTTATFSKIAQGGLIPKYIYE | not soluble |
| MNMIDKIGVHDVPPGESLQPPRIPYTPIFSNKRLSKHMSRFLIYFLPFFIYSGNVLSKTSCLMATGVLKCPTDPEAVKKVHIDLWDEDSLPLESDDLMGRTWSDRNGNFQVTGCASDFGPINTPDPYLYIQHNCPHRDSNATNPIQVYLKVLENASF | not soluble |
| MNNDKLQRMVENLSEEKFGRTFRHCAYFNKRLRTTGGRYLLKSHDIEINPKQYEHYGEDAVVKIILHELCHYHLHIAGKGYQHKDQDFKRLSQQVGAPRFCNSIESYQQRANYEYYCTKCHAKYIRIRKVDTNRMRCGHCNGKLRMKRQLK | not soluble |
| MNNEFLQTEEDIVRMLRTVYDPEIPVNVYDLGLIYNVDVGADGFVTVTMTLTAPNCPAADFIIEDVRMKVESVKGVKGVKIDLTFEPEWNKDMMSEEAMLELGFL | not soluble |
| MNNKLTPVSPGEMLAEEFLIPLGMSNYRLAKEIGVSAQRIGEIVTGKRAITVDTDLRLCRFFGLSDGWWLRLQVDYDIEMARGALEETLAKIRPWANTQEHGTPA | not soluble |
| MNNQNNNFVDFSEDDDMMDADFLGVVIPDDLMNASLEFQRTEPFSFIPAEEDLAPMEILPNNQGDVEMTAVDKNPDKVLFELRVETQIEPTLNYINAENEAVEWDIKSYYDFDNPQRPAQADEAATYQENGYGFVDFQPFAQQQQPAYNGNEPEFLIQRMQITDETYANAHFHQNEYAIEEKPSLFSPSSTPSYCCTSGPISPAYTPIGNNANACAPTRSRRTSTASNKSGGKIGKVAKLGEKSSGEKRTRMTKAEMSRLTEKEKLERKKEQNRANAKNCVKNRNNSKEELKQTLEMLREKVQEAKRQNEMQENGLLAAYETNIFAVQGNNFPYGSLELFYDQLQGSKAEAVEQVQYDNNGEVVQLEEAFNKTEQDYGQYTSVKKIAGLPQNTFASKKSRAKTAFEIADHQLNLKKEEVELREANAIKVVLNQITRELNRYMDGAKLAEQQAFDENFQQFEPS | not soluble |
| MNNSNRIIPFAFKSSEHGSYEDEMMEMEDVVDVEDYMGGEKYDSYNDAKEDIKDFKTTQRMKKIHRMEKIEQNIASEKIDIIELGTRVMVSTSDKTLNEASLERTIRCGISEATFLGDISMESLVEGMVNPSAADGRFAMLGTSIMLNALKSNIKDLRGTIVGQTTNTNSESKFDKIDLSLMNLSHCQQTSYNIRATGVFSNADLQYVFSLLTFRRNAKLLNKTKQFIKAYFCVACRPRCMIWRYTLRRAGNSQRRAILNLPSAIVSTITQFLLDLTGISDANIPYDQLDPMTPLSISLGEDESMRVQRYEEACRLKDPLTRFFRDAITDCLNELREMPFCLNTGILLSPLRGREQGTSCVTWKDYEGFLKREHDLPSEANMKKRTQFEQRLCDIIPRVRRPVPN | not soluble |
| MNNWREIAVRPDESIRETLEVIDEGAVQIAIVADGHDHLQGIVTDGDIRRGILKDLDLGAPVASVMNEDPITARPQEDRQSLIDTMRARRIHQIPLVDNEGRVVGIEVLDDLLEPEARPNPVVLMAGGLGTRLRPLTDDCPKPLLEVGDKPILETILEGFIAHGFHRFYLSVNYKAGMIEDYFRDGSNWGVDISYVHEEKRLGTAGPLSLLPERPDETMIVMNGDLLTKLNFTHLLDFHREHGAVATMCVREHETQVPYGVIETDDQSMEGIEEKPTERYFVNAGIYVLEPETLGYVPENEFFDMPDLFKRLIDEGKEATVFPVREYWQDVGRKEDFHRVNGEYEEVFDTLEHHHHHH | soluble |
| MNPKFRSFFSKNAEIFRFSLSENPEIFRFSRHFSMKSFYDIIEIDEIATFDDVKKAYFRFLRKDNRPIYDSWLREQRLRETQGTIGETIELEYGERDVDEYCRKKIPKKNIFSKKKKRFFRTFSNRPNPRHGNLRVLLVLPLSRNPSLLHHHHHPRHPLKKMSSLDESSTKILVLGDSCVGKTSLCHCIAGGGEPPGGGRSFDSTIGATVVMAWHEYRAGTPEQRTELLELWDIGGMVAHRQAAQVFFEGAVGAILVHDLTNKRSEENLATWLTMLDGKPRGAAPKSSKDPAAVALKVDIESCNIPVLIVGTKADLVPHKGPVSYDRYDGLGNANSAISVWKPRNRRKNSKKPMKIGRKLVVEKEKVKKFGRQYLRRGLGFSFSSARWHKEMTEARNVQKSMKMVIFRLFSMGGRN | not soluble |
| MNPQLLRVTNRIIERSRETRSAYLARIEQAKTSTVHRSQLACGNLAHGFAACQPEDKASLKSMLRNNIAIITSYNDMLSAHQPYEHYPEIIRKALHEANAVGQVAGGVPAMCDGVTQGQDGMELSLLSREVIAMSAAVGLSHNMFDGALFLGVCDKIVPGLTMAALSFGHLPAVFVPSGPMASGLPNKEKVRIRQLYAEGKVDRMALLESEAASYHAPGTCTFYGTANTNQMVVEFMGMQLPGSSFVHPDSPLRDALTAAAARQVTRMTGNGNEWMPIGKMIDEKVVVNGIVALLATGGSTNHTMHLVAMARAAGIQINWDDFSDLSDVVPLMARLYPNGPADINHFQAAGGVPVLVRELLKAGLLHEDVNTVAGFGLSRYTLEPWLNNGELDWREGAEKSLDSNVIASFEQPFSHHGGTKVLSGNLGRAVMKTSAVPVENQVIEAPAVVFESQHDVMPAFEAGLLDRDCVVVVRHQGPKANGMPELHKLMPPLGVLLDRCFKIALVTDGRLSGASGKVPSAIHVTPEAYDGGLLAKVRDGDIIRVNGQTGELTLLVDEAELAAREPHIPDLSASRVGTGRELFSALREKLSGAEQGATCITF | soluble |
| MNQLTSSFIQNLAEDNIYKLPPHSIEAEQSVLGGLMLDNQAWDKVADIIIESDFYRQDHQLIYQHISRLIEQNKPADVITVAESLENAAQLQHAGGLAYIGAIAQNTPSAANIRRYAEIVRERSIMRKL | not soluble |
| MNQSDVLSNSMKQATINNEAHVIIDDIDTAHKELDILQQEVDKVIFGQNHVIEYALTSILAGGHALLVGVPGLAKTRLVETLGIVLGLDEKRIQFTPDLMPSDIIGSEIMDSDKSGKRSFRYLQGPIFTQLLMADEINRASPRTQSALLQAMQEYHVTVAGTRYDLPQPFHVLATQNPLEQEGTYPLPEAQLDRFLMQIDIDYPDLTTERRIILDTTGGKNQNAKPVLSAKTLQKIQKIVRKMPISENVVEAILKLVRSARPHKENSLANTYVAWGPGPRASQALSLCARARALYHGRLSPSLDDIATLACPVLQHRMALNFSARAENITIKDIIDNLVKDAL | not soluble |
| MNRISTSSVNSSFNYTAPTEEAQNRFASAPDNSPLVVTTTSIAQASEGLQRPGATLSMQAQRLRQLMGSPSEQCRRDTMLAKAFDAQRLNINTQAGSSNSPHLNALNTLQQRHFKPAAGGLEIPVTSNSLLGGGRQVYQIGSSSRELSHRPVNDQDRAPFRALERLHAELFRGGPIEFVPRGSNVLASNVRDVDMDEFDVINSKDGCQGIGTTGLGPCIAVCARGMDREGLPVLGVYHHSGIGSPEDTMATLDQAMRDKGALQIKYSLVGGMIMPKEEEAGSYDDEQSFLALKGSYSIEGARLHVSEGEEDVHTGEDNSVNVLLMPDRVLYGRDTLYC | not soluble |
| MNRLHRWNWLVLSAALVTLPFTTPTQAAGVSVSQGSSASLSQAELEQMLAPIALYPDSLLSHILIASTYPLELVQAQRWLEDHPKLSVEQVMSRTEDKGWDPSVKALMAFPNVLQKMSEDLDWTQRLGEAFLANEGQVMDGIQSLRQQADKANSLANMDNMAVTRANNQIIIEPVRREVVYVPYYDPRVVYGTWRWGVAYPPVYWQFGGYVGNPYRPSHSYFYWSPGIHISFNYFFSSFHWHRHKVVVIDHHHSHHYRPRERYSVSHGAQPWKHKPEHRRGVAYHHPVVKERYYSDSKYRGRDSHSSGSGQHFTSQYAKSREHQDTRDNRDNQRDDKRHDKDRGNQYSRERTPNLQHTQAELKERRATPMDSSQTHRENYQREHRQKERNDNGRHDNQVRQNQAKTMREQTNDTWQRQYQQREYQSSDQQPRHVETRAQPQRHEARPEVRRPEPQRIEQPRQAQPRQREEVRTRPSESRQHTQCGA | not soluble |
